What was measured:
[1] = biological target: T cell receptors of the mouse LLO91-99-specific CD8+ T cell line (mouse); experiment: cell-based or functional assay
[2] = biological target: T cell receptors of the mouse p60217-225-specific CD8+ T cell line (mouse); experiment: cell-based or functional assay
[3] = biological target: T cell receptors of the mouse p60217-225-specific CD8+ T cell line (mouse); experiment: flow cytometry, tetramer staining of CD8+ T cell line
[4] = biological target: T cell receptors of the human Flu-specific (Flu58-66) CD8+ T cell line (human); experiment: flow cytometry, tetramer staining at 37 C, 24 h incubation
[5] = biological target: T cell receptors of the human Flu-specific (Flu58-66) CD8+ T cell line (human); experiment: flow cytometry, tetramer staining at 37 C, 1 h incubation
[6] = biological target: T cell receptors of the human Flu-specific (Flu58-66) CD8+ T cell line (human); experiment: flow cytometry, tetramer staining of CD8+ T cell line
[7] = biological target: T cell receptors of the human Flu-specific (Flu58-66) CD8+ T cell line (human); experiment: flow cytometry, tetramer staining at 37 C, column headed 2 h
[8] = biological target: T cell receptors of the human Flu-specific (Flu58-66) CD8+ T cell line (human); experiment: flow cytometry, tetramer staining at 37 C, 8 h incubation
[9] = biological target: T cell receptors of the mouse LLO91-99-specific CD8+ T cell line (mouse); experiment: flow cytometry, tetramer staining at 37 C, 1 h incubation
[10] = biological target: T cell receptors of the mouse LLO91-99-specific CD8+ T cell line (mouse); experiment: flow cytometry, tetramer staining of CD8+ T cell line
[11] = biological target: T cell receptors of the mouse LLO91-99-specific CD8+ T cell line (mouse); experiment: flow cytometry, tetramer staining at 37 C, column headed 2 h
[12] = biological target: T cell receptors of the mouse LLO91-99-specific CD8+ T cell line (mouse); experiment: flow cytometry, tetramer staining at 37 C, 8 h incubation

How did the IFN-γ ELISPOT, spots, non-treated vs treated with 10 nCi/ml for 72 hr (specific IFN-γ spots (treated)) [1] turn out when “225Ac-labeled LLO91 tetramer (225Ac-DOTA-biotin, LLO91/H-2K^d monomers, streptavidin) (from UniProt P61769 21-119; P22629 37-163; P01902 22-305) (peptide-MHC)” was run?
Its IFN-γ ELISPOT, spots, non-treated vs treated with 10 nCi/ml for 72 hr (specific IFN-γ spots (treated)) is 83.

And the cell killing (ED50) [1]?
The cell killing (ED50) was 4 to 8 nCi/ml.

What about the IFN-γ ELISPOT, spots, non-treated vs treated with 10 nCi/ml for 72 hr (specific IFN-γ spots (treated)) [2] of the same substance?
Its IFN-γ ELISPOT, spots, non-treated vs treated with 10 nCi/ml for 72 hr (specific IFN-γ spots (treated)) is 105.

And the cell killing (ED50) [2]?
Its cell killing (ED50) is 100 to 200 nCi/ml.

Which % of CD8+ T cells stained positive for the tetramer [3] does the source give for “p60217-225/H-2K^d tetramer (from UniProt P61769 21-119; P22629 37-163; P01902 22-305) (peptide-MHC)” here?
Its % of CD8+ T cells stained positive for the tetramer is 70%.

“LMP1/HLA-A2 tetramer (PE- or FITC-streptavidin, non-radiolabeled) (from UniProt P61769 21-119; P22629 37-163) (peptide-MHC)” was tested. Which % tetramer binding of CD8+ T cells [4] did it give?
The % tetramer binding of CD8+ T cells was 1%.

And the % tetramer binding of CD8+ T cells [5]?
Its % tetramer binding of CD8+ T cells is 0.9%.

And the % of CD8+ T cells stained with the tetramer [6]?
Its % of CD8+ T cells stained with the tetramer is 1%.

What about the % tetramer binding of CD8+ T cells [7] of the same substance?
The % tetramer binding of CD8+ T cells was 1.2%.

And the % tetramer binding of CD8+ T cells [8]?
The % tetramer binding of CD8+ T cells was 1.5%.

How did the % tetramer binding of CD8+ T cells [9] turn out when “LLO91-99/H-2K^d tetramer (fluorescent, non-radiolabeled) (from UniProt P61769 21-119; P22629 37-163; P01902 22-305) (peptide-MHC)” was run?
Its % tetramer binding of CD8+ T cells is 76%.

And the % of CD8+ T cells that bound the tetramer [10]?
Its % of CD8+ T cells that bound the tetramer is 76%.

What about the % of CD8+ T cells stained with the tetramer [3] of the same substance?
The % of CD8+ T cells stained with the tetramer was 1.3%.

What about the % tetramer binding of CD8+ T cells [11] of the same substance?
The % tetramer binding of CD8+ T cells was 75%.

What about the % tetramer binding of CD8+ T cells [12] of the same substance?
The % tetramer binding of CD8+ T cells was 63%.
